The source of these data is patent publication US20220119513A1 (ZOETIS SERVICES, published 2022).

Where a chain is given by its changes, count along the chain named. Read-outs that look alike come from different tables or passages of the source.

As a reminder, the Kd is a measure of binding affinity in units of concentration. Low values mean higher affinity, high ones lower affinity.

Experiment [1] deals with TGFβ1 (R&D Systems). Kind of experiment: cell-based or functional assay.
The target in experiment [2] is T1, TGFβ3 (R&D Systems) (Homo sapiens (Human), UniProt P10600 301-412, Active TGFβ3 is a disulfide-linked homodimer of this chain; one copy is given.).
T1 sequence: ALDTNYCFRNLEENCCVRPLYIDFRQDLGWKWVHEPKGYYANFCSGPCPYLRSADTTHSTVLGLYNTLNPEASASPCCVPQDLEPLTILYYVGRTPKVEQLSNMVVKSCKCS
Kind of experiment: cell-based or functional assay.

In experiment [3] the target is TGFβ1 (R&D Systems). Kind of experiment: cell-based or functional assay. The source holds these as a separate data set.
The target of experiment [4] is T1, TGFβ3 (R&D Systems). As to the kind of experiment: cell-based or functional assay. This is another data set of the same source.
The target in another experiment is canine TGFβ1 (canine, UniProt P54831 279-390, limits assumed). As to the kind of experiment: SPR, TGFβ on chip. An excerpt: (§1) To avoid affinity differences associated with differential surface preparation that can occur when immobilizing antibodies to surfaces, TGFβ1, TGFβ2, and TGFβ3 (R&D Systems) were directly conjugated to the individual surface. Immobilization was obtained by amine coupling […] using N-hydroxysuccinimide (NHS)/1-Ethyl-3-(3-dimethylaminopropyl) carbodiimide (EDC) chemistry. Chips were quenched with ethanolamine and the affinity with which all candidate mAbs bound to the immobilized TGFβ was evaluated. All curves were fit to a 1:1 model. Affinities <10⁻¹¹ are below the lower limit of quantitation of detection for the instrument.
(In general: SPR reads the build-up and loss of mass on a sensor chip optically.)

Experiment [5] deals with T2, canine TGFβ3 (canine, UniProt A0A8I3S1P1 346-457).
T2 sequence: T1 sequence
As to the kind of experiment: SPR, TGFβ on chip.
Text: as §1

Experiment [6] concerns the target T3, canine TGFβ2 (canine, UniProt A0A8I3PZZ6 331-442).
T3 sequence: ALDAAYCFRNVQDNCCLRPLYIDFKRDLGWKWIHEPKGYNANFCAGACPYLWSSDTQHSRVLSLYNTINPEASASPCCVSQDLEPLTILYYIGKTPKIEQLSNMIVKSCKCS
Kind of experiment: SPR, TGFβ on chip.
Text: as §1

In experiment [7] the target is T2, canine TGFβ3. Kind of experiment: SPR.
Experiment [8] has as its target T3, canine TGFβ2. Kind of experiment: SPR.
Experiment [9] has as its target T4, TGFβ1 (R&D Systems).
T4 construct: also called TGFB1
Kind of experiment: SPR full titration.

In experiment [10] the target is T4, TGFβ1 (R&D Systems). Kind of experiment: SPR full titration. The source holds these as a separate data set.
Another experiment concerns the target T5, TGFβ2 (R&D Systems).
T5 construct: also called TGFB2
T5 sequence (P61812 303-414, species assumed, looked up): T3 sequence
Kind of experiment: SPR full titration.

Experiment [11] addresses T1, TGFβ3 (R&D Systems). As to the kind of experiment: SPR full titration.
Experiment [12] deals with T4, TGFβ1 (R&D Systems). Kind of experiment: cell-based or functional assay. The source holds these as a separate data set.
The target in experiment [13] is T1, TGFβ3 (R&D Systems). As to the kind of experiment: SPR.

Sequence of canine TGFβ1 (P54831 279-390 limits assumed): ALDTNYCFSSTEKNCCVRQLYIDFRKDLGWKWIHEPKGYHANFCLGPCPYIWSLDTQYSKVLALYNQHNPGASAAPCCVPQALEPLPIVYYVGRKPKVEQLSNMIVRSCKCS
T4 sequence (P01137 279-390): as the sequence (P54831 279-390 limits assumed) above

B1: fel04H09-17 (antibody, V domains shown)
VH: QVLLVQSGAEVRRPGASVKIFCKASGYSFTSSWMNWLRQAPAQGFEWMGQIYPGDGDTNYNGKFKGRLTLTADTSTDTAYMELSSLRSADTAVYYCARHYDGSTDYWGHGTIVTVSS
VL: AITMTQSPGSLAGSPGQQVTMNCRASENIYSNLAWYQQKPGQHPKLLIYAATNLADGVPDRFSGSGSGTDFTLTISNLQAEDVASYYCQHFWGTPYTFGGGT
On to B1, for which the “CMVIC pSmad-3, IC50” value was 0.89 nM with TGFβ1 (R&D Systems) [1] and 39.9 nM with TGFβ3 (R&D Systems) [2]. The entries for the “CRFK pSmad-3, IC50” value in the experiment with TGFβ1 (R&D Systems) [1] and with TGFβ3 (R&D Systems) [2] were 0.73 nM and 370 nM, respectively.

B2: fel04H09-24 (antibody, V domains shown)
VH: B1 VH with R13K, A42E, F45L, D77N, V93M, H109Q, T111A, I112L
VL: DIVMTQTPLSLPVTPGEPASISCRASENIYSNLAWYLQKPGQSPRLLIYAATNLADGVPSRFSGSGSGTDFTLRISSVEADDVGVYYCQHFWGTPYTFGQGT
In the case of B2, the “CRFK pSmad-3, IC50” value with TGFβ1 (R&D Systems) [1] was 0.5 nM; with TGFβ3 (R&D Systems) [2], 30.1 nM.

B3: Can04H09 VH3/VL4 (antibody, V domains shown)
VH: EVQLVQSAAEVKKPGASVKVSCKTSGYTFTSSWMNWVQQAPGAGLDWMGQIYPGDGDTNYNGKFKGRVTLTADTSTSTAYMELSSLRAEDTAVYYCARHYDGSTDYWGQGTLVTVSS
VL: EIVMTQSPASLSLSQGEKVTITCRASENIYSNLAWYQQRPGQAPKLLIYAATNLADGVPSRFSGSGSGTDFSLTISSLEPEDVAVYYCQHFWGTPYTFGQGTK
Take B3: the “CMVIC pSmad-3, IC50” value with TGFβ1 (R&D Systems) [3] came to 0.74 nM; with TGFβ3 (R&D Systems) [4], 52.8 nM. Besides, the values for the Kd with canine TGFβ1, in the experiment with canine TGFβ3 [5] and with canine TGFβ2 [6] were 1.38 nM, 6.06 nM and 32.1 nM, respectively.

B4: Can04H09 VH3/VL1 (antibody, V domains shown)
VH: B3 VH
VL: DIVMTQNPLSLSVSPGETASISCRASENIYSNLAWFRQKPGQSPQRLIYAATNLADGVPDRFSGSGSGTDFTLRISRVEADDTGVYYCQHFWGTPYTFGQGTK
In turn, B4 returned a Kd with canine TGFβ1 of 3980 nM. The binding result with canine TGFβ3 [7] and with canine TGFβ2 [8] was “no binding” throughout.

B5: Can04H09 VH2/VL1 (antibody, V domains shown)
VH: B3 VH with T28S, A43K, T74K, A88S, T91A
VL: B4 VL
On to B5, for which the Kd with canine TGFβ1 stood at 2190 nM. The binding result with canine TGFβ3 [7] and in the experiment with canine TGFβ2 [8] was “no binding” throughout.

B6: Can04H09 VH3/VL3 (antibody, V domains shown)
VH: B3 VH
VL: B3 VL with G16E, R39K, L73F
As to B6, the “CMVIC pSmad-3, IC50” value in the experiment with TGFβ1 (R&D Systems) [3] was 1.18 nM; in the experiment with TGFβ3 (R&D Systems) [4] it was 72.8 nM. The Kd with canine TGFβ1 turned out to be 2.79 nM; in the experiment with canine TGFβ3 [5] it was 9.08 nM; with canine TGFβ2 [6] it was 48.8 nM.

B7: Can04H09 VH1/VL3 (antibody, V domains shown)
VH: B3 VH with A8G, T30I, Q38R, E89G, T91I
VL: B3 VL with G16E, R39K, L73F
As to B7, the “CMVIC pSmad-3, IC50” value with TGFβ1 (R&D Systems) [3] was 0.66 nM; in the experiment with TGFβ3 (R&D Systems) [4], 467 nM. In addition, the Kd stood at 2.43 nM with canine TGFβ1, 6.52 nM with canine TGFβ3 [5] and 32 nM with canine TGFβ2 [6].

B8: Can04H09 VH1/VL1 (antibody, V domains shown)
VH: B3 VH with A8G, T30I, Q38R, E89G, T91I
VL: B4 VL
In the experiment with canine TGFβ1, B8 had a Kd of 284 nM. Moreover, the binding result with canine TGFβ3 [7] and in the experiment with canine TGFβ2 [8] was “no binding” each time.

B9: Can04H09 VH2/VL4 (antibody, V domains shown)
VH: B3 VH with T28S, A43K, T74K, A88S, T91A
VL: B3 VL
Regarding B9, the “CMVIC pSmad-3, IC50” value with TGFβ1 (R&D Systems) [3] amounted to 0.84 nM; with TGFβ3 (R&D Systems) [4], 69.5 nM. The dissociation constant (Kd) with canine TGFβ1 came out at 1.42 nM; in the experiment with canine TGFβ3 [5], 6.03 nM; with canine TGFβ2 [6], 32.9 nM.

B10: Chimera-SL501-VH/Can-SL501-VL2 (antibody, V domains shown)
VH: EVQLVESGGGVVQPGRSLRLSCAASGFTFSSYGMHWVRQAPGKELEWVAVISYDGSIKYYADSVKGRFTISRDNSKNTLYLQMNSLRAEDTAVYYCARTGEYSGYDTDPQYSWGQGTTVTVSS
VL: EIVMTQSPGSLAGSAGESVSINCRASQGIGDDLGWYQQKPGERPKLLIYGTSTLQSGVPARFSSSGSGTDFTLTINNLQAEDVGDYYCLQDSNYPLTFGAGTK
notes: also called heterochimeric SL501
For the molecule B10, in the experiment with TGFβ1 (R&D Systems) [9], the Kd is 0.000192 nM.

B11: Chimera-SL501-VH/CanSL501-VL-hybrid (antibody, V domains shown)
VH: B10 VH
VL: EIVLTQSPSSLSASVGDRVTITCRASQGIGDDLGWYQQKPGQAPKLLIYGTSTLQSGVPSRFSGSGSGTDFSFTISSLEPEDVAVYYCLQDSNYPLTFGGGTK
notes: constant regions not restated
The molecule B11 yielded a Kd with TGFβ1 (R&D Systems) [9] of 0.0428 nM.

B12: Can-SL501_VH1/CanSL501-VL-hybrid (antibody, V domains shown)
VH: EVQLVESGGDLVKPGGSLRLSCVASGFTFSSYGMHWVRQAPGKGLQWVAVISYDGSIKYYTDAVKGRFTISRDNARNTVYLQMNSLRAEDTAVYYCAKTGEYSGYDTDPQYSWGQGTLVTVSS
VL: B11 VL
notes: constant regions not restated
Consider B12, for which the Kd in the experiment with TGFβ1 (R&D Systems) [9] stood at 4.01 nM.

B13: H1chimK (antibody)
heavy: EVQLVQSGAEVKKPGASVKVSCKTSGYTFITYWMNWVRQAPGAGLDWMGQIFPASGSTNYNEMFEGRVTLTADTSTSTAYMELSSLRAGDIAVYYCARGDGNYALDAMDYWGQGTLVTASTTAPSVFPLAPSCGSTSGSTVALACLVSGYFPEPVTVSWNSGSLTSGVHTFPSVLQSSGLYSLSSMVTVPSSRWPSETFTCNVAHPASKTKVDKPVPKRENGRVPRPPDCPKCPAPEAAGAPSVFIFPPKPKDTLLIARTPEVTCVVVDLDPEDPEVQISWFVDGKQMQTAKTQPREEQFNGTYRVVSVLPIGHQDWLKGKQFTCKVNNKALPSPIERTISKARGQAHQPSVYVLPPSREELSKNTVSLTCLIKDFFPPDIDVEWQSNGQQEPESKYRTTPPQLDEDGSYFLYSKLSVDKSRWQRGDTFICAVMHEALHNHYTQESLSHSPGK
light: DIVLTQTPASLAVSLGQRATISCRASESVDSYGNSFMHWYQQKSGQPPKLLIYLASNLESGVPARFSGSGSRTDFTLTIDPVEADDAATYYCQQNNEDPLTFGAGTKRNDAQPAVYLFQPSPDQLHTGSASVVCLLNSFYPKDINVKWKVDGVIQDTGIQESVTEQDKDSTYSLSSTLTMSSTEYLSHELYSCEITHKSLPSTLIKSFQRSEC
notes: also called canHcLb-VH1/chiHcLb-VL
As for B13, the Kd was found to be 6.52 nM in the experiment with TGFβ1 (R&D Systems) [10], 0.683 nM with TGFβ2 (R&D Systems) and 1.03 nM with TGFβ3 (R&D Systems) [11].

B14: H2chimK (antibody)
heavy: B13 heavy with G8A, T28S, I30T, R38Q, A43K, A72V, G89E, I91A
light: B13 light
notes: also called canHcLb-VH2/chiHcLb-VL
For B14, the Kd in the experiment with TGFβ1 (R&D Systems) [10] is 16.3 nM; with TGFβ2 (R&D Systems), 6.62 nM; in the experiment with TGFβ3 (R&D Systems) [11], 2.26 nM.

B15: fel-TGFβ1-Spec (antibody)
heavy: DVQLVESGGDLVKPGGSLRLTCVASGFTFSSYGMHWVRQAPGKELEWVAVISYDGSIKYYADAVKGRFTISRDNAKNTLYLQMNSLKTEDTATYYCARTGEYSGYDTDPQYSWGQGTTVTVSSASTTAPSVFPLAPSCGTTSGATVALACLVLGYFPEPVTVSWNSGALTSGVHTFPAVLQASGLYSLSSMVTVPSSRWLSDTFTCNVAHPPSNTKVDKTVRKTDHPPGPKPCDCPKCPPPEAAGAPSIFIFPPKPKDTLSISRTPEVTCLVVDLGPDDSDVQITWFVDNTQVYTAKTSPREEQFNSTYRVVSVLPILHQDWLKGKEFKCKVNSKSLPSPIERTISKAKGQPHEPQVYVLPPAQEELSRNKVSVTCLIKSFHPPDIAVEWEITGQPEPENNYRTTPPQLDSDGTYFVYSKLSVDRSHWQRGNTYTCSVSHEALHSHHTQKSLTQSPGK
light: EIQMTQSPSSLSASPGDRVTITCRASQGIGDDLGWYQQKPGKVPKLLIYGTSTLQSGVPSRFSGSGSGTDFTLTISSLEPEDAATYYCLQDSNYPLTFGGGTKRSDAQPSVFLFQPSLDELHTGSASIVCILNDFYPKEVNVKWKVDGVVQNKGIQESTTEQNSKDSTYSLSSTLTMSSTEYQSHEKFSCEVTHKSLASTLVKSFQRSECQRE
notes: also called FelSL501-VH3-9/FelSL501-VL1-1
For the molecule B15, the “CMVIC pSmad-3, IC50” value in the experiment with TGFβ1 (R&D Systems) [12] stood at 9.03 nM. Moreover, in the experiment with TGFβ3 (R&D Systems) [13], the binding result is listed as “no binding”.

B16: fel-TGFβ1_hetero-chimera-1 (antibody)
heavy: B15 heavy
light: B15 light with Q3V, M4L, P15V, V43A, K45I, S76N, E79Q, A83F
B16: in the experiment with TGFβ1 (R&D Systems) [12], the “CMVIC pSmad-3, IC50” value is 30.1 nM. In the experiment with TGFβ3 (R&D Systems) [13], the binding result was “no binding”.
